Results reported in patent US11155793B2, “Phytase variants YeAPPA having improved gastric protein resistance and acid resistance, and increased catalytic efficiency” (priority 2017, dated 2021).

Columns and labels:
[1] = molecular target: wild phytase YeAPPA, SEQ ID NO.1 (Yersinia enterocolitica, UniProt D9D7K9); assay: Kinetic parameters of wild phytase on sodium phytate (double reciprocal method); type: biochemical; settings: optimal pH 5, 45° C.
[2] = molecular target: phytase YeAPPA variant YeAPPA-E230P (Glu230 into proline), SEQ ID NO.6 (Yersinia enterocolitica, UniProt D9D7K9, E230P); assay: Kinetic parameters of phytase variant YeAPPA-E230P on sodium phytate; settings: YeAPPA-E230P vs wild phytase, in words
Procedure: According to embodiment of the present invention, the phytase variant YeAPPA-E230P with amino acid sequence as set forth in SEQ ID NO.6 is obtained by mutation at the 230th site of glutamic acid into proline for phytase with amino acid as set forth in SEQ ID NO.1.
The modified gene encoding the phytase variants were inserted into expression vector pET-22b (+), and transformed into E coli.
The effect of pepsin on the activity of the purified mutant phytase was determined by detecting the remained activity after being treated in pH 2 for 2 hours with the different concentrations of pepsin in a mass ratio to phytase ranging from 1/1000 to 1/1. […] After developing, OD is measured at 700 nm to calculate the phytase activity. 1 unit of phytase activity is determined to be the enzyme amount releasing 1 μmol of phosphate for 1 minute. The absolute value of the measured phytase activity may be calculated based on the standard curve of inorganic phosphate in dilution.

[3] = molecular target: phytase YeAPPA variant YeAPPA-L162G (Leu162 into glycine), SEQ ID NO.3 (Yersinia enterocolitica, UniProt D9D7K9, L162G); assay: Kinetic parameters of phytase variant YeAPPA-L162G on sodium phytate; settings: YeAPPA-L162G vs wild phytase
[4] = molecular target: phytase YeAPPA variant YeAPPA-L162A (Leu162 into alanine), SEQ ID NO.4 (Yersinia enterocolitica, UniProt D9D7K9, L162A); assay: Kinetic parameters of phytase variant YeAPPA-L162A on sodium phytate; settings: YeAPPA-L162A vs wild phytase, in words
[5] = molecular target: phytase YeAPPA variant YeAPPA-E230G (Glu230 into glycine), SEQ ID NO.5 (Yersinia enterocolitica, UniProt D9D7K9, E230G); assay: Kinetic parameters of phytase variant YeAPPA-E230G on sodium phytate; settings: YeAPPA-E230G vs wild phytase
[6] = molecular target: phytase YeAPPA variant YeAPPA-E230R (Glu230 into arginine), SEQ ID NO.7 (Yersinia enterocolitica, UniProt D9D7K9, E230R); assay: Kinetic parameters of phytase variant YeAPPA-E230R on sodium phytate; settings: YeAPPA-E230R vs wild phytase, in words
[7] = system: O=P(O)(O)O[C@H]1[C@H](OP(=O)(O)O)[C@@H](OP(=O)(O)O)[C@H](OP(=O)(O)O)[C@@H](OP(=O)(O)O)[C@H]1OP(=O)(O)O; assay: purified protein, by the assay type; settings: sodium phytate 0.0625-1.5 mmol/L
[8] = other: YeAPPA-E230G, optimal pH 5, 45° C.
[9] = other: YeAPPA-E230P, optimal pH 5, 50° C.
[10] = other: YeAPPA-E230R, optimal pH 4, 45° C.
[11] = other: YeAPPA-L162A, optimal pH 5, 45° C.
[12] = other: YeAPPA-L162G, optimal pH 5, 45° C.

## O=P(O)(O)O[C@H]1[C@H](OP(=O)(O)O)[C@@H](OP(=O)(O)O)[C@H](OP(=O)(O)O)[C@@H](OP(=O)(O)O)[C@H]1OP(=O)(O)O [sodium phytate]
[1]
  Kcat/Km: 26 S^−1 mM^−1
  Vmax: 6.4 U mg^−1
[1]; from theoretical molecular weight
  Kcat: 4.9 S^−1
[2]
  reaction rate, conversion rate and catalytic efficiency compared with wild phytase: almost same as those of the wild phytase
[3]
  Catalytic efficiency Kcat/km relative to wild phytase: 1.7 times
[4]
  reaction rate, conversion rate and catalytic efficiency compared with wild phytase: almost same as those of the wild phytase
[5]
  Catalytic efficiency Kcat/km relative to wild phytase: 2.5 times
  Conversion rate Kcat relative to wild phytase: 2.5 times
  Reaction rate Vmax relative to wild phytase: 2.5 times
[6]
  reaction rate, conversion rate and catalytic efficiency compared with wild phytase: almost same as those of the wild phytase

## phytase YeAPPA variant YeAPPA-E230G (Glu230 into glycine), SEQ ID NO.5 (Yersinia enterocolitica; E230G)
[7]; [8]
  Km: 190 µM
  Vmax: 16 µmol/min/mg
  kcat: 12 s⁻¹
  kcat/Km: 64000 M⁻¹ s⁻¹

## phytase YeAPPA variant YeAPPA-E230P (Glu230 into proline), SEQ ID NO.6 (Yersinia enterocolitica; E230P)
[7]; [9]
  Km: 190 µM
  Vmax: 6.7 µmol/min/mg
  kcat: 5.1 s⁻¹
  kcat/Km: 26000 M⁻¹ s⁻¹

## phytase YeAPPA variant YeAPPA-E230R (Glu230 into arginine), SEQ ID NO.7 (Yersinia enterocolitica; E230R)
[7]; [10]
  Km: 180 µM
  Vmax: 6.3 µmol/min/mg
  kcat: 4.8 s⁻¹
  kcat/Km: 26000 M⁻¹ s⁻¹

## phytase YeAPPA variant YeAPPA-L162A (Leu162 into alanine), SEQ ID NO.4 (Yersinia enterocolitica; L162A)
[7]; [11]
  Km: 190 µM
  Vmax: 6.5 µmol/min/mg
  kcat: 5 s⁻¹
  kcat/Km: 27000 M⁻¹ s⁻¹

## phytase YeAPPA variant YeAPPA-L162G (Leu162 into glycine), SEQ ID NO.3 (Yersinia enterocolitica; L162G)
[7]; [12]
  Km: 190 µM
  Vmax: 11 µmol/min/mg
  kcat: 8.2 s⁻¹
  kcat/Km: 43000 M⁻¹ s⁻¹
